Data reported in publication PMC4992975, “Pyrophosphate-Dependent ATP Formation from Acetyl Coenzyme A in Syntrophus aciditrophicus, a New Twist on ATP Formation” (mBio, 2016).

B1: Purified Acs1 (native AMP-forming, acetyl-CoA synthetase) (Syntrophus aciditrophicus SB) (protein)
chain: MGEESILKEFYPVPERIKAKAWVKGRGEYDKLYAESIADSAAWWAKQADEILTFYKKWDKVEDFNFDIRKGPIHVKYFEGAKLNVSYNCLDRHLATKGDKVAIQWEGNEPGEQKAYTYKDLHTEVCKFANVLKKHGIKRGDRVCIYTPMVVEAAIAMLACTRIGAVHAIVFGGFSSDALAVRIQDAQAKLLVVCDGTFRGAKAVPQKKDADVALKECPTIEKVIVVRRVGDKIACDMTPGRDLWWHDEMATVDANCECEQMDAEDTLFILYTSGSTGQPKGALHTTAGYLLYAAYTSKFAFDLHDEDIHWCTADIGWVTGHSYVVYGPLALGATSIMFEGVPNYPTYSRFWQVVEKYKVTSFYTAPTAIRAIAKEGDEWLKGIDLSSLRVLSSVGEPLNPEAWQWFYEKIGNSQCPIVDTWWQTETGGHMILPLPGAIDIKPAKPALPIMGVIPTLVDDQTGEELKNMEANGALCFKTAWPGITRTIYGDHKRYEETYFEPYPGNYFSGDGALRDKDGYYRITGRIDDVINVSGHRMGTAEIEATLNAHEKVAESAVVGYPHEVKGQSIYAYITLKTGFEPSEDLKKELTQYVRTIIGPIATPEKIQWADGLPKTRSGKIMRRILKKVAANELGDLGDTSTLADPAVVDDLVKNRL
notes: native, purified from crotonate-grown pure-culture cell extracts; single band ~74 kDa on denaturing gel; untagged
B2: Recombinant Acs1 (SYN_02635 gene product) (Syntrophus aciditrophicus SB) (protein)
chain: MGEESILKEFYPVPERIKAKAWVKGRGEYDKLYAESIADSAAWWAKQADEILTFYKKWDKVEDFNFDIRKGPIHVKYFEGAKLNVSYNCLDRHLATKGDKVAIQWEGNEPGEQKAYTYKDLHTEVCKFANVLKKHGIKRGDRVCIYTPMVVEAAIAMLACTRIGAVHAIVFGGFSSDALAVRIQDAQAKLLVVCDGTFRGAKAVPQKKDADVALKECPTIEKVIVVRRVGDKIACDMTPGRDLWWHDEMATVDANCECEQMDAEDTLFILYTSGSTGQPKGALHTTAGYLLYAAYTSKFAFDLHDEDIHWCTADIGWVTGHSYVVYGPLALGATSIMFEGVPNYPTYSRFWQVVEKYKVTSFYTAPTAIRAIAKEGDEWLKGIDLSSLRVLSSVGEPLNPEAWQWFYEKIGNSQCPIVDTWWQTETGGHMILPLPGAIDIKPAKPALPIMGVIPTLVDDQTGEELKNMEANGALCFKTAWPGITRTIYGDHKRYEETYFEPYPGNYFSGDGALRDKDGYYRITGRIDDVINVSGHRMGTAEIEATLNAHEKVAESAVVGYPHEVKGQSIYAYITLKTGFEPSEDLKKELTQYVRTIIGPIATPEKIQWADGLPKTRSGKIMRRILKKVAANELGDLGDTSTLADPAVVDDLVKNRL

Tests used:
purified protein = substrate: CC(=O)O; experiment: purified protein; conditions: acetyl-CoA-forming direction (acetate limiting), 37°C
[1] = substrate: O=P(O)(O)OP(=O)(O)O; experiment: ATP formation coupled to hexokinase / glucose-6-phosphate dehydrogenase, NADP+ reduction; format: biochemical, Syntrophus aciditrophicus; conditions: acetate-forming direction (pyrophosphate limiting), AMP and acetyl-CoA co-substrates, 37°C, enzyme purified without ammonium sulfate fractionation
Description: ATP formation coupled to hexokinase / glucose-6-phosphate dehydrogenase, NADP+ reduction on Purified Acs1 (native AMP-forming, acetyl-CoA synthetase)

[2] = substrate: CC(C)(COP(=O)(O)OP(=O)(O)OC[C@H]1O[C@@H](n2cnc3c(N)ncnc32)[C@H](O)[C@@H]1OP(=O)(O)O)[C@@H](O)C(=O)NCCC(=O)NCCS; experiment: coupled enzyme assay, NAD(H) oxidation; format: biochemical, Syntrophus aciditrophicus; conditions: acetyl-CoA-forming direction (CoA limiting), 37°C
Description: coupled enzyme assay, NAD(H) oxidation on Purified Acs1 (native AMP-forming, acetyl-CoA synthetase)

[3] = substrate: CC(C)(COP(=O)(O)OP(=O)(O)OC[C@H]1O[C@@H](n2cnc3c(N)ncnc32)[C@H](O)[C@@H]1OP(=O)(O)O)[C@@H](O)C(=O)NCCC(=O)NCCS; experiment: coupled enzyme assay, NAD(H) oxidation; format: biochemical, Syntrophus aciditrophicus; conditions: acetyl-CoA-forming direction (CoA limiting), 37°C; remark: listed apart in the source
Description: coupled enzyme assay, NAD(H) oxidation on Recombinant Acs1 (SYN_02635 gene product)

Protein | Km (purified protein) [µM] | Km [1] [µM] | Km [2] [µM] | Km [3] [µM]
B1 | 590 ± 200 | 250 ± 20 | 260 ± 100 | –
B2 | 960 ± 20 | – | – | 210 ± 50
